Assay in all cases: peptide or protein array; SH2/PTB proteins spotted on aldehyde slides, rhodamine peptide titrated in buffer B (20 mM HEPES, 100 mM KCl, 0.1% Tween-20, 5 mM DTT, pH 7.8), 1 h at room temperature; replicate assays
Conditions in all cases: both partners purified

One test concerns the target T1, CRK SH2 domain (human, UniProt P46108 13-118).
T1 construct: CRK, human; source: bacterial expression, purified

Test [1] concerns the target T2, RASA1 C-terminal SH2 domain (human).
T2 construct: RASA1, human; source: bacterial expression, purified
T2 sequence (P20936 whole entry, looked up): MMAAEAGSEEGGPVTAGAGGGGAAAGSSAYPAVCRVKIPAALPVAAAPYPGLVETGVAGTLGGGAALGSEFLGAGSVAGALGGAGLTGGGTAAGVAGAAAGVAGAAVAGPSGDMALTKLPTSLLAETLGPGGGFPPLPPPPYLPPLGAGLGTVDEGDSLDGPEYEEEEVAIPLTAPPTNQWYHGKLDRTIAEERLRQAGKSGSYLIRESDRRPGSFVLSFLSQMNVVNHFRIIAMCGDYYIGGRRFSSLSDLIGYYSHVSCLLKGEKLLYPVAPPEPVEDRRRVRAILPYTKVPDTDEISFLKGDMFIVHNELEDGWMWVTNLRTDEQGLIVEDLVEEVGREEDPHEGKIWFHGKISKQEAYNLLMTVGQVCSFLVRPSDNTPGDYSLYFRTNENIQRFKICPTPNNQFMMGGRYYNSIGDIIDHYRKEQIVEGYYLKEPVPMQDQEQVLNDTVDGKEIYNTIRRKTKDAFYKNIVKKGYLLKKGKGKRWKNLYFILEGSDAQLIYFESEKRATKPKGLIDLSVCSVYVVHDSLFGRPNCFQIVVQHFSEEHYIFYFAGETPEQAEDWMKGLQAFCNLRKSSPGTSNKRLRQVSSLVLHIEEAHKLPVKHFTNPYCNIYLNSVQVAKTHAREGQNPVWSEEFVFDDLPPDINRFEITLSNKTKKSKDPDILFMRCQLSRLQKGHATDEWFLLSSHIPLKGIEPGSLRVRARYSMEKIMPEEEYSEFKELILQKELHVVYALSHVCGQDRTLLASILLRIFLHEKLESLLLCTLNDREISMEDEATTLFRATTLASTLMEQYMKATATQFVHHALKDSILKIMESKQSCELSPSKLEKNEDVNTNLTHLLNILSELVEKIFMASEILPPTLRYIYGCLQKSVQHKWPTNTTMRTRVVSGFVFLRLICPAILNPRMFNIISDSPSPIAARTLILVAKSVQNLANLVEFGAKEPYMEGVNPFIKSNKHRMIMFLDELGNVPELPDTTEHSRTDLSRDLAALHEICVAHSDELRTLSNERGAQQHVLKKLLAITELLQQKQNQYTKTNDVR

Another test has as its target T3, DAPP1 SH2 domain (human, UniProt Q9UN19 35-129).
T3 construct: DAPP1, human; source: bacterial expression, purified
T3 sequence (looked up): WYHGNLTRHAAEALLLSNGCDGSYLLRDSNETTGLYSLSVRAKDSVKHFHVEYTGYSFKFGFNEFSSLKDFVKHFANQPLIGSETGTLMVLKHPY

Another test deals with T4, SOCS6 SH2 domain (human, UniProt O14544 384-491).
T4 construct: SOCS6, human; source: bacterial expression, purified
T4 sequence (looked up): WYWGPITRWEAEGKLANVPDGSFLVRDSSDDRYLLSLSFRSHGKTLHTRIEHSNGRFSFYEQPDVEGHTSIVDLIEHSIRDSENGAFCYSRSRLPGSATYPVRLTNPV

For the next test, the target named is T5, BCAR3 SH2 domain (human, UniProt O75815 154-253).
T5 construct: BCAR3, human; source: bacterial expression, purified
T5 sequence (looked up): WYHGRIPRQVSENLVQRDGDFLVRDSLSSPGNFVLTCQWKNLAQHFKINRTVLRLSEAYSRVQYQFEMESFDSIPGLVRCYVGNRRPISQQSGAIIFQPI

The next test deals with T6, SH2D1A SH2 domain (human, UniProt O60880 6-104).
T6 construct: SH2D1A, human; source: bacterial expression, purified
T6 sequence (looked up): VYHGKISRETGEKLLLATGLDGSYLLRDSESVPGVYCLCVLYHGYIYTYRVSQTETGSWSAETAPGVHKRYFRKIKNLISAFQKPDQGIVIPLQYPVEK

The target of the next test is T7, TNS3 SH2 domain (human, UniProt Q68CZ2 1172-1282).
T7 construct: TNS3, human; source: bacterial expression, purified
T7 sequence (looked up): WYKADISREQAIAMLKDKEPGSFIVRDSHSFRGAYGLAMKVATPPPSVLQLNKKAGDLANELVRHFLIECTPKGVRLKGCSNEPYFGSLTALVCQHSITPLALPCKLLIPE

In a further test the target is T8, SH3BP2 SH2 domain (human, UniProt P78314 457-555).
T8 construct: SH3BP2, human; source: bacterial expression, purified
T8 sequence (looked up): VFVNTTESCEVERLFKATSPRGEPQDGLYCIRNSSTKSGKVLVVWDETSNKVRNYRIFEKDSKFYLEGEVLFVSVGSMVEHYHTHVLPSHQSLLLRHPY

The source of these data is article PMC3433420, “Comprehensive Binary Interaction Mapping of SH2 Domains via Fluorescence Polarization Reveals Novel Functional Diversification of ErbB Receptors” (PLoS ONE, 2012).

“And” between values parts separate entries of the source, which are not always exact repeats. Identical values can stand only once. Non-standard residues stand in square brackets, D forms with d. No end group written: not given here. pY = N[C@@H](Cc1ccc(OP(=O)(O)O)cc1)C(=O)O; Rhodamine = not defined here

A word on the Kd: it is a measure of binding affinity in units of concentration.

T1 sequence (P46108 13-118): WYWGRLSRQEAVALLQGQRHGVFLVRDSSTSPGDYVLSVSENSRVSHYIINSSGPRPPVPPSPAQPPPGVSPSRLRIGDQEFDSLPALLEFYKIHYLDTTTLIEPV

In the case of Rhodamine-ETDG[pY]VAPLTCSD (reading uncertain) [ErbB2 pY1127 phosphopeptide, rhodamine-labelled, for protein microarrays], the dissociation constant (Kd) is 7.71 µM in the test with CRK SH2 domain; 1210 nM in test [1]; 2670 nM with DAPP1 SH2 domain; 8.93 µM and 5.2 µM in the test with SOCS6 SH2 domain; 726 nM in the test with BCAR3 SH2 domain; 1.6 µM and 4.59 µM with SH2D1A SH2 domain. Besides, the dissociation constant (Kd) is 5.96 µM with TNS3 SH2 domain; 1140 nM and 2860 nM with SH3BP2 SH2 domain.
